Assay results as given in the nanobody polyreactivity screen of Harvey et al. (2022).

Test: yeast display, Sf9 membrane polyspecificity reagent, FACS + sequencing; frameworks hold sequencing errors
Method in brief: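 Nanobodies from a synthetic yeast display library (Saccharomyces cerevisiae BJ5465), induced 36–48 hours with galactose, were stained 1 hour at 4 °C with 10% biotinylated, detergent-solubilized Sf9 membrane reagent, enriched on streptavidin microbeads, then FACS-sorted. Anti-HA (expression) and streptavidin (reagent binding) fluorescence set low and high (top ~1%) gates. Polyreactivity labels come from the gate of origin. Genes were colony-PCR amplified, MiSeq 2 × 250 sequenced and filtered by CDR length.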

| Sequence | polyreactivity (PSR sort gate) |
| --- | --- |
| QVQLVESGGGLVQAGGSLRLSCAASGSIFFYYAMGWYRQAPGKERELVAAINSDGSTNYADSVKGRFTISRDNAKNTVYLQMNSLKPEDTAVYYCAAYDEYYGYDYWGQGTQVTVSS | low polyreactivity |
| QVQLVESVGGLVQAGGSLRLSCAASGSTYPYYAMGWYRQAPGKERELVAASTSGGSTNYADSVKGRFTISRDNAKNTVYLQMNSLKPEDTSVYYCATDWSVDLWTWYYYWGQGTQVTVSS | high polyreactivity |
| QVQLVESGGGLVQAGGSLRLSCAASGRIFYGYAMGWYRQAPGKERELVAGISYRGARTYYADSVKARFTISRDNAKNTVYLQMNSLKPEDTAVYNCNAVPYYPFAFGALDYSGQGTQVTVSS | high polyreactivity |
| QVQLVESGGGLVQAGGSIRLSCDHSGRNLYRNSMGWYRQAPEKERELVARITSSGASTYYADSVKGRFTISRDNAKNTVTIQMNSLKQEYTAVYYCAAQYLSRRYGPYYTYNYRGQGTQVTVSS | high polyreactivity |
| QVQLVESGGGLVQAGGSLRLSCAASGITFSSYAMGWSRQAPGKERELVAAISSGGSTYYADSVKGRFTISRDNAKNTVYLQMNSLKPEDTAVYYCRPLVTLDWYKFGYWGQGTQVTVSS | low polyreactivity |
| QAQLVESGGGLVQAGGSLRLSCAASGRTSYRYVMGWYIQAPGKERELVAAISRGGRTYYADSVKGSFTISRDNAKYTVYLQMNSLNPEVTAVYYCNAAFGVYVATGDSFPRHKKFGFWGQGTQVTVSS | high polyreactivity |
| QVQLVESGGGLVQAGGSLRLSCAASGFTFTFNAMGWYRQEPGKEREFVAAITWSGGSTYYADSVKGRFTISRDNAKNTVYLQMNSLKPEDTAVYYCAARLYRSFTFNYWGQGTQVTVSS | high polyreactivity |
| QVQLVETGGGLDQAGGSLRLSCAASGRTFLLYAMGWYRQAPGKERELVARITGRGGRTYYADSVKGRFTISRDNAKNTVYLQMNSLKPEDTAVYYCNAKGYQGQWERYDYWGQGTEVTVSS | high polyreactivity |
| QVQLVESGGGLVQAGCSLRLSCAACGFTFIPNAMGWYRQAPAKERELVAAISFGGGSTYYADSVKGRFTISRDNAKNTVYLQMNSMKPEETAVYYCAAEAFVSYEPYWYVRYYSSYNYWGQGTQVTVSS | high polyreactivity |
| QVQLQESGGGMVQAGGSQRLSCAASGYISWADYMGWYRKATGKERELVAGIGYGSTTYYADSVKGLFTISRDNANNTAYLQMNSLKPEDTAVYYCAVGWYRDTAYKYWGQGTQVTVSS | low polyreactivity |
| QVHLVESGGGLVQAGGSLRLSCAASGGTFQDYTMGWYRQAPGKEREFVAAISLSGTRTYYADSVKGRFTISRDNAKNTVYFQMNSLKPEDSAVYYCSTSGPQYYSRNFDYWGQATQVTVSS | low polyreactivity |
| QVQLVESGGGLVQAGGSLRLSCAASGSIFKLNAMGWYRQAPGKERELVAAISRGGRKYYADSVKGRFTISRDNAKNTVYLQMNSLKPEDTAVYYCAADASSQIWYYPRDDYWGQGTQVTVSS | low polyreactivity |
| QVQLVESGGGLVQAGGSLRLICAASGIILYSYAMGWYRQAPGKERELVAAISRRGTSTFYADSVKGRFTISRDNAKNTVYLQMNSLKPEDTAVYYCAADFYTNHYDYWGQGTQVTVSS | high polyreactivity |
| QVQLVESGGGLVQAGGSLRLSCAASGFIFDDNAMGWNRQAHGKERELVAAITSGGGSTYYADSVKGRFTISRDNAKNTVYLQLNSLKPEDTAVYYCNAVPSQHDEFDYWGQGTQVSVSS | low polyreactivity |
| QVQLHESGGVLVQAGGSLRLSCAASGTISVHYNMCWYRQEPRQEREFVAGNSTGATTNYADSVKGRFTISRDNENNTVYLQMNSLKPEDTAVYYCAAHIYGQDHFYYWGQGTQVTVSS | low polyreactivity |
| QDQLVESGGGLVQAGGSLRLSCAASGNTFNRYAKGWYRQAPGQERELVAAITSDGSTNYADSVKGRFTISRDNAKNTVYIQKNSMKPEDTAVYYCAAEHSGYPVAFYITGYGYDYCGQGTQVTVSS | low polyreactivity |
| QVQLVESGGGLVQAGGSLRLSCAASGRIFGKNAMGWYRQAPGKERELVAAISSSGGSTYYADSVKGRFTISRDNAKNTVYLQMNSLKPEDTAVYYCAAGVTRGMDYWGQGTQVTVSS | high polyreactivity |
